{
  "source": "paper PMC7527728",
  "about": "“CPSF6-Dependent Targeting of Speckle-Associated Domains Distinguishes Primate from Nonprimate Lentiviral Integration” (mBio, 2020)",
  "molecular_target": "CPSF6_(276–290/F284A) peptide (human)",
  "test": "fluorescence polarisation; 150 nM FITC-Ahx-labelled peptide mixed with increasing capsid NTD protein (2 μM to 2 mM) in 50 mM Tris-HCl pH 8.0, 50 mM NaCl, 384-well plates; one-site specific binding model; the EIAV constants are called apparent",
  "data": [
    {"substance": "HIV-1 capsid N-terminal domain (NTD) protein (domain or fragment)", "values": [
      {"measurement": "Kd", "result": "> 6", "unit": "mM"}
    ]},
    {"substance": "MLV capsid N-terminal domain (NTD) protein (domain or fragment)", "values": [
      {"measurement": "Kd", "result": "> 8", "unit": "mM"}
    ]}
  ]
}
